91 sequences from the supplement of paper PMC9112550, “Optimization of the antimicrobial peptide Bac7 by deep mutational scanning” (BMC Biology, 2022) can be followed below.

The data set relates to Escherichia coli TOP10. Kind of data set: shrunken log2 fold change of peptide-encoding DNA abundance (4.5 h post-induction vs induction); higher = less antimicrobial activity (less host growth inhibition). As to conditions: time post-induction: 4.5 h; library: site-saturation at positions 5, 18, 19, 20.
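Also: peptides expressed intracellularly from a pBAD plasmid library in pooled LB shake-flask culture, induced with 0.3% L-arabinose, DNA abundance read by NGS, three biological replicates, DESeq2 with apeglm shrinkage.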

With RRIRERPPRLPRPRPRPLKGPRP, the “shrunken log2 fold change” value amounted to 0.176.

RRIRWRPPRLPRPRPRPEHKPRP: the “shrunken log2 fold change” value stood at 0.278.

As to RRIRWRPPRLPRPRPRPQQVPRP, the “shrunken log2 fold change” value is -0.00531.

RRIRVRPPRLPRPRPRPLRYPRP: the “shrunken log2 fold change” value was -0.142.

Regarding RRIRARPPRLPRPRPRPQYDPRP, the “shrunken log2 fold change” value was -0.018.

For RRIRDRPPRLPRPRPRPLWLPRP, the “shrunken log2 fold change” value came to 0.399.

Turning to RRIRIRPPRLPRPRPRPTSWPRP, the “shrunken log2 fold change” value was 0.0769.

Turning to RRIRARPPRLPRPRPRPHVAPRP, the “shrunken log2 fold change” value stood at 0.114.

As to RRIRNRPPRLPRPRPRPEHVPRP, the “shrunken log2 fold change” value was -0.0119.

RRIRLRPPRLPRPRPRPSRAPRP: the “shrunken log2 fold change” value was found to be 0.0241.

Turning to RRIRYRPPRLPRPRPRPSSYPRP, the “shrunken log2 fold change” value was -0.955.

Consider RRIRWRPPRLPRPRPRPNKPPRP, for which the “shrunken log2 fold change” value is -0.0749.

Regarding RRIRARPPRLPRPRPRPHPFPRP, the “shrunken log2 fold change” value is 0.0322.

RRIRFRPPRLPRPRPRPQMTPRP: the “shrunken log2 fold change” value is -0.169.

For RRIRNRPPRLPRPRPRPQLHPRP, the “shrunken log2 fold change” value was -0.358.

Consider RRIRHRPPRLPRPRPRPKYIPRP, for which the “shrunken log2 fold change” value was -0.796.

Turning to RRIRARPPRLPRPRPRPIQAPRP, the “shrunken log2 fold change” value is -0.0205.

Turning to RRIRARPPRLPRPRPRPNWTPRP, the “shrunken log2 fold change” value was determined as 0.0524.

On to RRIRARPPRLPRPRPRPKAIPRP, for which the “shrunken log2 fold change” value came out at 0.496.

With RRIRRRPPRLPRPRPRPIFTPRP, the “shrunken log2 fold change” value was 0.2.

With RRIRTRPPRLPRPRPRPTTNPRP, the “shrunken log2 fold change” value was -0.19.

On to RRIRPRPPRLPRPRPRPMRCPRP, for which the “shrunken log2 fold change” value was 0.221.

RRIRVRPPRLPRPRPRPWECPRP: the “shrunken log2 fold change” value was -0.00141.

Regarding RRIRVRPPRLPRPRPRPHYIPRP, the “shrunken log2 fold change” value is -0.589.

RRIRQRPPRLPRPRPRPYSAPRP: the “shrunken log2 fold change” value is -0.00273.

As to RRIRTRPPRLPRPRPRPTDYPRP, the “shrunken log2 fold change” value was -0.263.

Consider RRIRWRPPRLPRPRPRPPVLPRP, for which the “shrunken log2 fold change” value turned out to be 0.433.

Regarding RRIRERPPRLPRPRPRPQIWPRP, the “shrunken log2 fold change” value is 0.0182.

As for RRIRHRPPRLPRPRPRPYLLPRP, the “shrunken log2 fold change” value was -0.611.

Regarding RRIRRRPPRLPRPRPRPFMLPRP, the “shrunken log2 fold change” value came to 0.0692.

As for RRIRWRPPRLPRPRPRPMLTPRP, the “shrunken log2 fold change” value is 0.391.

RRIRPRPPRLPRPRPRPCRRPRP: the “shrunken log2 fold change” value is 0.117.

As to RRIRERPPRLPRPRPRPPKMPRP, the “shrunken log2 fold change” value was -0.212.

Regarding RRIRVRPPRLPRPRPRPYPQPRP, the “shrunken log2 fold change” value was -0.349.

With RRIRKRPPRLPRPRPRPMAPPRP, the “shrunken log2 fold change” value stood at 0.0811.

In the case of RRIRYRPPRLPRPRPRPSFPPRP, the “shrunken log2 fold change” value is -0.831.

Turning to RRIRARPPRLPRPRPRPCYNPRP, the “shrunken log2 fold change” value is -0.456.

RRIRSRPPRLPRPRPRPRIEPRP: the “shrunken log2 fold change” value amounted to 0.753.

In the case of RRIRNRPPRLPRPRPRPWGPPRP, the “shrunken log2 fold change” value is -0.37.

With RRIRRRPPRLPRPRPRPFWGPRP, the “shrunken log2 fold change” value stood at 0.463.

In the case of RRIRPRPPRLPRPRPRPTSQPRP, the “shrunken log2 fold change” value worked out at 0.0453.

On to RRIRPRPPRLPRPRPRPFQQPRP, for which the “shrunken log2 fold change” value is -0.000989.

For RRIRWRPPRLPRPRPRPGYSPRP, the “shrunken log2 fold change” value was -0.191.

Consider RRIRLRPPRLPRPRPRPMVMPRP, for which the “shrunken log2 fold change” value was -0.0937.

For the sequence RRIRVRPPRLPRPRPRPLMEPRP, the “shrunken log2 fold change” value was -0.21.

For the sequence RRIRWRPPRLPRPRPRPQEHPRP, the “shrunken log2 fold change” value is 0.0218.

For the sequence RRIRQRPPRLPRPRPRPLRHPRP, the “shrunken log2 fold change” value turned out to be 0.323.

Take RRIRYRPPRLPRPRPRPPIRPRP: the “shrunken log2 fold change” value is -0.121.

As for RRIRNRPPRLPRPRPRPDMAPRP, the “shrunken log2 fold change” value is -0.0639.

Turning to RRIRRRPPRLPRPRPRPTWNPRP, the “shrunken log2 fold change” value was determined as 0.951.

On to RRIRIRPPRLPRPRPRPNTIPRP, for which the “shrunken log2 fold change” value is -0.355.

Consider RRIRFRPPRLPRPRPRPRVLPRP, for which the “shrunken log2 fold change” value worked out at 0.121.

On to RRIRYRPPRLPRPRPRPYEMPRP, for which the “shrunken log2 fold change” value was -0.104.

For the sequence RRIRCRPPRLPRPRPRPLPYPRP, the “shrunken log2 fold change” value was -0.804.

Regarding RRIRYRPPRLPRPRPRPFLAPRP, the “shrunken log2 fold change” value was -0.649.

Take RRIRTRPPRLPRPRPRPVEAPRP: the “shrunken log2 fold change” value stood at 0.0918.

For RRIRMRPPRLPRPRPRPLSMPRP, the “shrunken log2 fold change” value is -0.289.

Take RRIRRRPPRLPRPRPRPAFFPRP: the “shrunken log2 fold change” value was determined as 0.58.

For RRIRCRPPRLPRPRPRPFMGPRP, the “shrunken log2 fold change” value is -0.585.

Consider RRIRTRPPRLPRPRPRPSLWPRP, for which the “shrunken log2 fold change” value was 0.277.

Consider RRIRCRPPRLPRPRPRPCWRPRP, for which the “shrunken log2 fold change” value came to 0.252.

For RRIRLRPPRLPRPRPRPIFKPRP, the “shrunken log2 fold change” value was -0.276.

RRIRPRPPRLPRPRPRPTNVPRP: the “shrunken log2 fold change” value was -0.0325.

As to RRIRERPPRLPRPRPRPISNPRP, the “shrunken log2 fold change” value was -0.25.

Consider RRIRPRPPRLPRPRPRPIAVPRP, for which the “shrunken log2 fold change” value was -0.0448.

Take RRIRRRPPRLPRPRPRPCLLPRP: the “shrunken log2 fold change” value is -0.335.

Turning to RRIRVRPPRLPRPRPRPCYYPRP, the “shrunken log2 fold change” value is -0.147.

RRIRGRPPRLPRPRPRPQCVPRP: the “shrunken log2 fold change” value was -0.0809.

For the sequence RRIRPRPPRLPRPRPRPVCSPRP, the “shrunken log2 fold change” value is -0.168.

RRIRWRPPRLPRPRPRPPPCPRP: the “shrunken log2 fold change” value was found to be 0.638.

On to RRIRRRPPRLPRPRPRPYCCPRP, for which the “shrunken log2 fold change” value was -0.565.

For the sequence RRIRERPPRLPRPRPRPQHDPRP, the “shrunken log2 fold change” value is -0.265.

Consider RRIRCRPPRLPRPRPRPTTEPRP, for which the “shrunken log2 fold change” value turned out to be 0.419.

As for RRIRERPPRLPRPRPRPRSMPRP, the “shrunken log2 fold change” value is -0.212.

As to RRIRCRPPRLPRPRPRPQLTPRP, the “shrunken log2 fold change” value is -0.147.

For RRIRLRPPRLPRPRPRPIISPRP, the “shrunken log2 fold change” value is -0.513.

Regarding RRIRARPPRLPRPRPRPRVFPRP, the “shrunken log2 fold change” value amounted to 0.704.

For the sequence RRIRTRPPRLPRPRPRPSNWPRP, the “shrunken log2 fold change” value was -0.281.

RRIRCRPPRLPRPRPRPSMVPRP: the “shrunken log2 fold change” value was -0.312.

Take RRIRWRPPRLPRPRPRPNQGPRP: the “shrunken log2 fold change” value was found to be 0.0374.

Regarding RRIRPRPPRLPRPRPRPMMKPRP, the “shrunken log2 fold change” value is -0.173.

Take RRIRYRPPRLPRPRPRPRNLPRP: the “shrunken log2 fold change” value was -0.036.

On to RRIRMRPPRLPRPRPRPYCRPRP, for which the “shrunken log2 fold change” value is -0.0603.

Regarding RRIRVRPPRLPRPRPRPKDIPRP, the “shrunken log2 fold change” value was -0.642.

For RRIRHRPPRLPRPRPRPINMPRP, the “shrunken log2 fold change” value is -0.244.

Consider RRIRQRPPRLPRPRPRPWIYPRP, for which the “shrunken log2 fold change” value stood at 0.0039.

As to RRIRPRPPRLPRPRPRPLPEPRP, the “shrunken log2 fold change” value stood at 0.935.

With RRIRKRPPRLPRPRPRPVVWPRP, the “shrunken log2 fold change” value was 0.602.

With RRIRIRPPRLPRPRPRPRLYPRP, the “shrunken log2 fold change” value is 0.0739.

As to RRIRFRPPRLPRPRPRPRHPPRP, the “shrunken log2 fold change” value was 0.0568.

For RRIRMRPPRLPRPRPRPVERPRP, the “shrunken log2 fold change” value turned out to be 0.015.
